In US5807729A, “Metalloprotease having increased activity” (Novo Nordisk A/S, priority 1995, dated 1998):

Tests used:
[1] = tested on: pro-trypsin-like Fusarium oxysporum protease; experiment: Proteolytic enzyme assay: tryptic activity released from pro-trypsin-like protease, L-BAPNA, 405 nm; format: biochemical
Protocol: Metalloprotease activity is measured as released trypsin activity from pro-trypsin-like Fusarium oxysporum protease deposited at the Deutsche Sammlung von Mikroorganismen, Gottingen, Germany under the number DSM 2672, after a 30-60 min pre-incubation at 25° C. in 0.1M Tris, 2 mM CaCl2, pH 7 (at lower pH, 100 mM borate, 10 mM DMG, 2 mM CaCl2 is used).
Metalloproteases contain a catalytic zinc metal center which participates in the hydrolysis of the peptide backbone. The active zinc center differentiates these proteases from calpains whose activities are dependent upon the presence of calcium. Confirmation of a protease as a metallo-protease is loss of proteolytic activity accomplished by removal of the zinc center with 1,10-phenanthroline (1 mM) followed by titration with Zn^2+ (0.1-100 μM) to restore full activity.
However, when combined the metalloprotease cleaves recombinant pro-trypsin-like Fusarium oxysporum protease disclosed, supra to yield the active tryptic protease. Metalloprotease activity is halted upon the addition of 1 mM 1,10-phenanthroline (Table 1).

succinylated casein = experiment: Casein hydrolysis, succinylated casein assay (QuantiCleave, BCA, 600 nm); format: biochemical
Protocol: 400 ul of casein solution (Pierce) is added to small test tubes along with 100 ul of protease. The tubes are vortexed and incubated at room temperature for 40 minutes. The incubation (and assay) buffer is 0.1 M borate, 2 mM CaCl2, and 10 mM dimethylglutarate, pH 6.5. At the end of the incubation, 60 microliters of trichloroacetic acid (100% w/v) is added, and the tubes are vortexed and centrifuged for 1 minute at 5000×g. 20 microliters of the resulting supernatant is placed into a microtiter plate well with 200 microliters of the BCA working reagent (Pierce). The plates are then vortexed and incubated another 30 minutes, then read at 600 nm using a Biomek 1000 microtiter plate reader.
400 microliters of casein solution (Pierce) are added to small test tubes along with 100 microliters of protease in buffer "A" (0.1M borate, 2 mM CaCl2 and 10 mM dimethylglutaric acid). At the end of the incubation, 60 microliters of trichloroacetic acid (100% w/v) is added, and the tubes are vortexed and centrifuged for 1 minute at 5000×g. 20 microliters of the resulting supernatant is placed into a microtiter plate well with 200 microliters of the BCA working reagent (Pierce). The plates are then vortexed and incubated another 30 minutes, then read at 600 nm using a Biomek 1000 microtiter plate reader.

FTC-labeled casein [2] = experiment: Thermal stability profile, FTC-casein hydrolysis; format: biochemical; conditions: 15 minutes at various temperatures, Universal buffer pH 7; FIG. 9
Protocol: Purified p45 metalloprotease or B.t. thermolysin (Boehringer Mannheim) (50 microliters, 0.1 mg/ml) are incubated at various temperatures for 15-minutes in Universal buffer, pH 7. Ten microliters of sample are then added to 30 microliters of Universal pH buffer (pH 7) and 20 microliters of FTC-labeled casein and are incubated at 37° C. for 1 hour. 150 microliters of 5% TCA is added to acidify and precipitate casein (1 hour at room temperature). […] Samples are then analyzed on the fluorimeter (slit width=2.5 nm; excitation freq.=490 nm; emission freq.=525 nm; integration time=2 sec).

FTC-labeled casein [3] = experiment: pH profile, FTC-casein hydrolysis; format: biochemical
Protocol: Purified p45 metalloprotease (10 microliters, 0.005 mg/ml) is added to 30 microliters of Universal pH buffer (pH 5-11.5), and 20 microliters of FTC-labeled casein are incubated at 37° C. for 1-hour. 150 microliters of 5% TCA is added to acidify and precipitate casein (1-hour at room temperature). […] Samples are then analyzed on the fluorimeter (slit width=2.5 nm; excitation freq.=490 nm; emission freq.=525 nm; integration time=2 sec).

[4] = tested on: pro-trypsin-like F. oxysporum protease; experiment: p45 metalloprotease pH stability; format: biochemical, Fusarium oxysporum; conditions: 20 minutes pre-incubation at room temperature
Protocol: To determine the pH stability of the recombinant p45 metalloprotease, the partially-purified p45 metalloprotease is diluted 10-fold into universal buffers at pH's of 3.5,4,4.5, 5.2, 5.64, 6, 7, 8, 9, and 10 and pre-incubated at room temperature for 20 minutes. The pre-incubated samples (10 microliters) are added to 40 microliters of buffer containing 0.1M borate, 2 mM CaCl2, and 10 mM dimethylglutarate, pH 6.5 and 50 microliters of crude A. oryzae broth containing pro-trypsin-like F. oxysporum protease and subsequently incubated another 30 minutes.

[5] = tested on: Ac-Pro-Leu-Gly[2-mercapto-4-methyl-pentanoyl]-Leu-Gly-OEt; experiment: Hydrolysis of the thermolytic merc-peptide substrate (Ellman's reagent, 405 nm); format: biochemical
Protocol: The thermolytic substrate Ac-Pro-Leu-Gly[2-mercapto-4-methyl-pentanoyl]-Leu-Gly-OEt (i.e. the merc-peptide) is also used to further characterize the p45 metalloprotease and B.t. thermolysin.
Reaction mixtures contain 100 microliters of Ac-Pro-Leu-Gly[2-mercapto-4-methyl-pentanoyl]-Leu-Gly-OEt (1 mM, and 1 mM Ellman's reagent) and 100 microliters of either B.t. thermolysin or purified p45 metalloprotease (0-3 ug/ml) in sample buffer.

FTC-labeled casein [6] = experiment: Protease analysis using FTC-labeled casein; format: biochemical
Protocol: Samples are incubated at room temperature for 30 minutes.

[7] = tested on: succinyl-Ala-Ala-Ala-p-nitroanilide; experiment: Hydrolysis of succinyl-Ala-Ala-Ala-p-nitroanilide; format: biochemical
Description: Both p45 metalloprotease and a neutral zinc endopeptidase secreted by Flavobacterium meningosepticum poorly hydrolyze the substrate N-[3-(2--furyl)acryloyl]-Leu-Gly-NH2. However, the neutral zinc endopeptidase secreted by Flavobacterium meningosepticum will hydrolyze the vertebrate elastase substrate succinyl-Ala-Ala-Ala-p-nitroanilide, a substrate that thermolysin cannot hydrolyze (Table 2). Therefore, succinyl-Ala-Ala-Ala-p-nitroanilide hydrolysis by the p45 metalloprotease is investigated. […] This effect further differentiates the p45 metalloprotease from other existing metalloproteases.

[8] = tested on: pro-trypsin-like F. oxysporum protease; experiment: Processing of pro-trypsin-like F. oxysporum protease to active trypsin-like protease
Protocol: Activatable pro-trypsin-like F. oxysporum protease is determined in microtiter wells as released trypsin-like F. oxysporum protease (tryptic) activity from pro-trypsin-like F. oxysporum protease after a 40 minute pre-incubation at room temperature with purified Fusarium oxysporum metalloprotease (approximately 6 ug).
Processed pro-trypsin-like F. oxysporum protease(i.e. mature trypsin-like F. oxysporum protease) activity is determined directly from microtiter plates containing the pre-incubated metalloprotease/pro-trypsin-like F. oxysporum protease cocktail (total volume=100 microliters), and 100 microliters of substrate (87 mg/ml.L-BAPNA stock in DMSO diluted 50-fold in sample buffer). Again, active trypsin-like F. oxysporum protease is determined as an increase in absorbance at 405 nm immediately after L-BAPNA addition.
Purified pro-trypsin-like F. oxysporum protease is added to fresh A. oryzae fermentation broths containing the recombinant p45 metalloprotease (approximately 90 mg/L) and incubated for either 1, 2, or 3 hours at room temperature. Levels of pro-trypsin-like F. oxysporum protease in the incubation mixtures range from 100 ug/ml to 13 mg/ml.
Purified pro-trypsin-like F. oxysporum protease (100 ug/ml) is added to various amounts of either purified recombinant p45 metalloprotease or purified B.s. metalloprotease.

B1: p45 Metalloprotease: metalloprotease purified from Fusarium oxysporum DSM 2672 broth, 45 kDa band; also produced recombinantly in A. oryzae (protein)
chain: MRFSDSLLLIGLSSLAGAHPSRRAPNPSPLSKRGLDLEAFKLPPMAEYVPQDEVPDDVSAKVVTKRADYTETAKDLVKSTFPKATFRMVTDHYVGSNGIAHVNFKQTVNGIDIDNADFNVNIGADGEVFSYGNSFYEGKIPGPLTKRDEKDPVDALKDTVDVLSLPVEADKAKAEKKSKNHYTFTGTKGTVSKPEAKLTYLVDENKELKLTWRVETDIVDNWLLTYVNAAKTDEVVGVVDYVNEATYKVYPWGVNDPSKGSRSTVENPWNLAASEFTWLSDGSNNYTTTRGNNGIAQVNPSGGSTYLNNYRPDSPSLKFEYDYSTSTTTPTTYRDASIAQLFYTANKYHDLLYLLGFTEQAGNFQTNNNGQGGVGNDMVILNAQDGSGTNNANFATPADGQPGRMRMYLWTYSTPQRDCSFDAGVVIHEYTHGLSNRLTGGPANSGCLPGGESGGMGEGWGDFMATAIHIQSKDTRASNKVMGDWVYNNAAGIRAYPYSTSLTTNPYTYKSVNSLSGVHAIGTYWATVLYEVMWNLIDKHGKNDADEPKFNNGVPTDGKYLAMKLVVDGMSLQPCNPNMVQARDAIIDADTALTKGANKCEIWKGFAKRGLGTGAKYSASSRTESFALPSGC
specific activity relative to the conventional Bacillus metalloprotease ([1]; based on absorbance at 280 nm, preparative IEF fraction, FIG. 2): about 10 fold
tryptic activity of the sample alone ([1]; sample alone): do not contain any tryptic activity
Tryptic Activity ([1]; without 1,10-phenanthroline, without Zn2+): 1.33 Δ Abs/min × 10^-4
Specific Activity, substrate Succinylated Casein (maximal level) (succinylated casein): 0.30 O.D.
maximum absorbance, casein hydrolysis (succinylated casein; pH 6.5, room temperature, 40 minutes, FIG. 8): around 0.3 O.D. units
maximum absorbance / maximal hydrolyzed casein relative to the other proteases (succinylated casein; relative to thermolysin, dispase, B.s. neutral metalloprotease, listed as p45): about 60%
optimum temperature for hydrolysis of FTC-casein (FTC-labeled casein [2]): 50 °C
pH at which the protease functions optimally (FTC-labeled casein [3]): ~9.5
optimum pH for hydrolysis of FTC-casein (FTC-labeled casein [3]; universal pH buffers pH 5-11.5, 37° C., 1 hour, FIG. 10): 9.5
acceptable pH range (stability) [4]: 6.5-9
pH at which most stable ([4]; pH 3.5-10): 8
Specific Activity, substrate merc-peptide [5]: 57 AU/min*mg
effectiveness at hydrolyzing the mercapto-peptide relative to B.s. thermolysin [5]: about 25 fold
Specific Activity, substrate FTC-Labelled Casein (FTC-labeled casein [6]): 170 FU/min*mg
FTC-casein hydrolysis relative to trypsin-like F. oxysporum protease (FTC-labeled casein [6]; on a molar basis at pH 9): approximately 16 fold
Specific Activity, substrate Ala-Ala-Ala-pNA [7]: < 2 pmol pNA/min*mg
hydrolysis of succinyl-Ala-Ala-Ala-p-nitroanilide ([7]; substrate 4.4 mM in 0.1M Tris, pH 8): neither, the p45 metalloprotease nor the B.s. thermolysin would hydrolyze
Specific Activity, substrate pro-trypsin [8]: 1.2 g trypsin/min*mg
share of activatable pro-trypsin-like protease processed ([8]; A. oryzae broth with approx. 90 mg/L recombinant p45, pro-trypsin 100 ug/ml to 13 mg/ml, room temperature, within 1 hour): 80-100%
moles of pro-trypsin-like protease processed per mole of metalloprotease ([8]; pro-trypsin-like protease 100 ug/ml, within 1 hr.): about 50 moles
